This note sets out measurements from patent US9957295B2, “Peptides inhibiting cold-inducible RNA binding protein activity” (The Feinstein Institute for Medical Research, priority 2013, dated 2018).

Data set [1] has as its system RAW 264.7 cells. Briefly: Cytokine release from RAW 264.7 cells stimulated with recombinant CIRP. Type of data set: cell-based, murine. The conditions noted are these: for TNF-α release from RAW 264.7 cells (in words): 100 ng/ml, 4 h, or indicated concentrations and times. As to the method: Murine macrophage-like RAW 264.7 cells were obtained from ATCC (American Type Culture Collection, Manassas, Va.), and were grown in Dulbecco's Modified Eagle's Medium (DMEM, Life Technologies, Grand Island, N.Y.) containing 10% (vol/vol) FBS (heat-inactivated at 56° C. for 30 min), 100 U/ml penicillin, 100 μg/ml streptomycin and 2 mM glutamine. Cells were re-suspended in medium and incubated in 6 or 48-well tissue-culture plates overnight in a humidified incubator (37° C., 5% CO2). In the experiments, cell monolayers were stimulated with or without recombinant CIRP at various indicated concentrations and for various indicated times. The cell-free supernatants were assayed for TNF-α by ELISA or for HMGB1 by western blot analysis.
As an index of the inflammatory cytokine cascade and the acute inflammatory response, supernatants from cells incubated with recombinant CIRP were measured for TNF-α and IL-6 levels in serum, tissue homogenates, and culture medium grown with macrophages using a commercially available enzyme-linked immunosorbent assay (ELISA) kits (BioSource International, Camarillo, Calif.) according to the manufacturer's instruction. To quantify TNF-α and IL-6 protein levels in serum and tissue, serum samples were harvested 4 h after hemorrhage, or 4 h after treatment with recombinant CIRP from animals by cardiac puncture at the time that the rats were sacrificed, and collected tissue samples, and carried out by the same method as above. HMGB1 levels were determined by Western blotting.
To address whether the extracellular CIRP could function as an inflammatory mediator, recombinant murine CIRP (rmCIRP) was expressed and purified using a bacterial expression system with more than 97% purity and confirmation by Western blotting (FIGS. 16A and B). […] J. Immunol. 174, 3306-3316 (2005); Henderson, B., et al. The extracellular signaling actions of molecular chaperones are not due to microbial contaminants. Cell Stress Chaperones 15, 123-141 (2010)). […]
In parallel experiments, cytokines in the supernatant of cultured RAW cells incubated with rCIRP were measured. […]

The subject of data set [2] is wild-type and TLR4 knockout mice. Description: rmCIRP injection into wild-type and Tlr4−/− mice. Type of data set: in vivo, mouse. As to conditions: 1 or 5 mg/kg BW, after 4 h. How it is done:
Tlr4^−/− mice were incubated with 1.5 μg/ml rmCIRP for 4 h. TNF-α levels in conditioned medium were assayed by ELISA. Data are mean±s.e.m. from three independent experiments. *P<0.05 vs. WT. In comparing the difference among wild-type and knockout mice targeting each receptor in response to rmCIRP, only TLR4-deficient macrophages lost the response for TNF-α induction, while RAGE- and TLR2-deficient macrophages maintained similar responses to wild-type macrophages (FIG. 13A). To confirm the requirement of TLR4 in mediating CIRP activity, wild-type and TLR4 knockout mice were injected with rmCIRP (1 or 5 mg/kg BW) or normal saline (vehicle). After 4 h, serum samples were collected and assayed for TNF-α and IL-6 by ELISA and HMGB1 by Western blotting as well as serum AST and ALT. Data are mean±s.e.m., n=6-9/group, *P<0.05 vs. WT no rmCIRP; #P<0.05 vs. WT with rmCIRP at 5 mg/kg. […] In contrast, these deleterious effects of rmCIRP on the wild-type mice were diminished in Tlr4^−/− mice.

B1: rmCIRP: recombinant murine (rat sequence) His-tagged CIRP expressed in E. coli (protein)
chain: MASDEGKLFVGGLSFDTNEQALEQVFSKYGQISEVVVVKDRETQRSRGFGFVTFENIDDAKDAMMAMNGKSVDGRQIRVDQAGKSSDNRSRGYRGGSAGGRGFFRGGRSRGRGFSRGGGDRGYGGGRFESRSGGYGGSRDYYASRSQGGSYGYRSSGGSYRDSYDSYATHNEHHHHHH
Consider B1, for which the “TNF-α release from RAW 264.7 cells (in words)” value in data set [1] is “increased TNF-α release in a dose- and time-dependent manner”. In data set [1] (listed as rCIRP), the “TNF-α release from RAW 264.7 cells (in words)” value is reported as “significantly increased TNF-α release”. Besides, the “increase of HMGB1 release from cultured RAW cells” value in data set [1] (500 ng/ml, 20 h incubation, Western blot) was “about 6 fold”. In data set [2], the “deleterious effects in Tlr4−/− mice” value is on record as “diminished”; the “serum cytokines and organ injury markers in wild-type mice” value was “increase of serum proinflammatory cytokines (TNF-α, IL-6, and HMGB1) and organ injury markers (AST and ALT) in a dose-dependent manner”.
